Here are results for four substances from patent US20250326848A1.

Assay [1] addresses human CD47 on primary human red blood cells (human) (UniProt Q08722). Kind of assay: FACS, whole cell binding to primary human red blood cells, Donor2. On the technique in general: A flow cytometer gives signals particle by particle.
For assay [2] the target is unchanged. Nature of the assay: FACS, whole cell binding to primary human red blood cells, Donor1.
The target of assay [3] is human CD47 on primary human platelets (human) (UniProt Q08722). Kind of assay: FACS, binding to primary human platelets, donor 2.
Assay [4] has the same target. Kind of assay: FACS, binding to primary human platelets, donor1.
Assay [5] has as its target human CD47 on Jurkat cells (human) (UniProt Q08722). Kind of assay: FACS, whole cell binding to Jurkat cells; middle panel 'Anti-CD47 whole cell binding to Jurkat', nM is from the axis 'Conc(nM)'.
Assay [6] has the same target. Nature of the assay: FACS, whole cell binding to Jurkat cells; top panel 'HLX305 Binding to CD47+ Jurkat Cells'; fit value given for a flat control curve; nM is from the axis.
For assay [7] the target is unchanged. Kind of assay: FACS, whole cell binding to Jurkat cells; bottom panel 'Anti-CD47 Binding to CD47+ cells'; fit value printed for the control curve; nM is from the axis.
The target is the same in assay [8]. Kind of assay: FACS, whole cell binding to Jurkat cells; middle panel 'Anti-CD47 whole cell binding to Jurkat'; fit value given for a flat control curve; nM is from the axis.
Assay [9] shares this target. Kind of assay: FACS, whole cell binding to Jurkat cells; bottom panel 'Anti-CD47 Binding to CD47+ cells', nM is from the axis 'Conc. (nM)'.
Assay [10] concerns the target human PDL1 expressed on CHO cells (human) (UniProt Q9NZQ7).

Chain of human PDL1 expressed on CHO cells (human) (Q9NZQ7 19-290 limits assumed): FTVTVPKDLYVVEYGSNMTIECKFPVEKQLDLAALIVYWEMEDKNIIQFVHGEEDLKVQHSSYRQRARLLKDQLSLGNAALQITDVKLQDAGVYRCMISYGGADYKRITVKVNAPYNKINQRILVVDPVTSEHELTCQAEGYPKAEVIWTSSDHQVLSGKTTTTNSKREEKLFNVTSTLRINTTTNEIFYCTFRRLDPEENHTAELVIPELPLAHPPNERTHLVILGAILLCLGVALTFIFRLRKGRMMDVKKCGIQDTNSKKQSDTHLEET

Usually EC50 (read off the curve) stands for the concentration needed to bring the measured effect to its halfway point. A low value points to an effect from little substance. By EC50 is commonly meant the concentration at which the effect is half-maximal. Read a low EC50 as greater potency. Regarding “IBI322 analog (anti-PDL1/CD47 antibody of US 20220227870 A1, synthesized in-house) (bispecific antibody)”, the 50% effective concentration (EC50 (read off the curve)) in assay [1] was 2 nM; in [2], 2 nM; in assay [3], 0.8 nM; in [4], 1 nM. Further, the half-maximal effective concentration (EC50) in assay [5] was 0.682 nM.
Turning to IgG isotype antibody (negative control), the concentration for a half-maximal effect (EC50) in assay [6] turned out to be 6.73 nM; in [7], 50 nM; in assay [8], 0.00976 nM.
The substance “PF-07257876 analog (anti-PDL1/CD47 antibody of US 20210179716 A1, synthesized in-house) (bispecific antibody)” came in with an EC50 in assay [9] of 8.29 nM.
The substance “Reference Ab 1 (analog of MPDL3280A, synthesized in-house from WO2016007235A1) (antibody)” registered an EC50; whole cell PDL1/PD1 blocking assay, NFAT luciferase reporter (RLU) in assay [10] of 0.0532 nM.
